From paper PMC4417174

System: PU.1ΔN167 (ETS domain) (murine)
Test: DMS footprinting
Conditions: saturating protein; Footprinting: 10 mM Tris-HCl pH 7.4, 150 mM NaCl, 0.1 mM EDTA, 0.5 g/l BSA, 0.1 g/l salmon sperm DNA; EMSA: 12% PAGE, 1x TBE, 0.1-10 uM protein; DLS: PBS, 25 C.

Substance: PU.1 high-affinity site, 206-bp footprinting fragment
- binding signal (% protection of core guanines vs unbound): 90
